In US8338155B2, “Modified mevalonate kinase with reduced feedback inhibition” (DSM IP Assets B.V., priority 2004, dated 2012):

Tests used:
[1] = system: Paracoccus zeaxanthinifaciens strain R114; assay: Coenzyme Q10 production in fed-batch cultivation of recombinant strains; type: cell-based; details: 70 h, strain R114 with plasmid pBBR-K-mev-op-(S. cerevisiae mvk-N66K/I152M)-PcrtE-ddsAwt vs pBBR-K-mev-op-(S. cerevisiae mvk)-PcrtE-ddsAwt
Description: To test the in vivo effect of mutation N66K/I152M on the production of coenzyme Q10, the DNA encoding S. cerevisiae mevalonate kinase mutant N66K/1152M (SEQ ID NO:5) is introduced into Paracoccus zeaxanthinifaciens and compared to the CoQ10 production in P. zeaxanthinifaciens carrying the DNA encoding the wild-type S. cerevisiae mevalonate kinase (SEQ ID NO:2).
Plasmids according to pBBR-K-mev-op-R114-PcrtE-ddsAwt, are constructed wherein the mevalonate operon, including its promoter region, from P. zeaxanthinifaciens R114 (see above) is replaced by either the DNA encoding the wild-type S. cerevisiae mevalonate kinase (SEQ ID NO:2) resulting in pBBR-K-mev-op-(S. cerevisiae mvk)-PcrtE-ddsAwt or the DNA encoding S. cerevisiae mevalonate kinase mutant N66K/1152M (SEQ ID NO:5) resulting in pBBR-K-mev-op-(S. cerevisiae mvk-N66K/I152M)-PcrtE-ddsAwt. […]
Coenzyme Q10 production is tested in fed-batch cultivations of P. zeaxanthinifaciens strains R114/pBBR-K-mev-opR114-PcrtE-ddsAwt, R114/pBBR-K-mev-op-(S. cerevisiae mvk)-PcrtE-ddsAwt and R114/pBBR-K-mev-op-(S. cerevisiae mvk-N66K/1152M)-PcrtE-ddsAwt. […] The precultures are incubated at 28° C. with shaking at 250 rpm for 28 h, after which time the optical density at 660 nm (OD660) is between 14 and 22 absorbance units, depending on the strain used. […]

[2] = system: Saccharomyces cerevisiae mevalonate kinase; assay: Mevalonate kinase activity assay (NADH consumption, photometric at 340 nm): specific activity; type: biochemical; details: purified His6-tagged enzyme; WT = non-mutated His6-tagged mevalonate kinase
Description: Methods for measuring specific activity are known to the person skilled in the art. The specific activity may for instance be determined via measuring the consumption of NADH. Suitable conditions for such measurement may be those as e.g. outlined in Example 1 except that, typically, saturating substrate concentrations are used or, in the case of enzyme inhibition at high substrate concentrations, at substrate concentrations that provide maximal activity under the particular experimental conditions.
(§1) For preparing mevalonate as substrate, 130 mg of DL-mevalonate lactone (FLUKA Chemie AG, Buchs, Switzerland) were dissolved in 5.5 ml of 0.2 M KOH and incubated for 15 min at 50° C. The solution was then adjusted to pH 7.0 by addition of 0.1 M HCl at room temperature (RT). Except if stated otherwise, the assay mixture consisted of 100 mM K2BPO/KH2PO4 (pH 7.0), 1 mM ATP, 2 mM MgCl2, 1 mM mevalonate, 0.5 mM phosphoenolpyruvate (PEP), 0.32 mM NADH, 20 U/ml pyruvate kinase and 27 U/ml lactate dehydrogenase (Sigma-Aldrich, St. Louis, Mo., USA). Inhibition was tested by adding 1 μM FPP.
(§2) Purification of His6-tagged mevalonate kinase and of His6-tagged mevalonate kinase mutant enzymes was done with Ni-NTA chromatography using the QIAexpress system/reagents of Qiagen. Upon addition of purified (His6-tagged) mevalonate kinase, enzymatic reaction reflected by consumption of NADH was followed by photometric measurement at 340 nm. One unit (1 U) of mevalonate kinase activity catalyzes the phosphorylation of 1 μmol of mevalonate per min.
(§3) Preparation of Mevalonate and Activity Measurement was Exactly Performed as Described in Example 1. 1 μM FPP was used for inhibition assays performed with the Saccharomyces cerevisiae mevalonate kinase wild-type enzyme and its mutants.

[3] = system: Saccharomyces cerevisiae mevalonate kinase; assay: Inhibition of mevalonate kinase activity by the feedback inhibitor FPP: feedback resistance; type: biochemical; details: 1 μM FPP; % resistance=100·((d/c)−(b/a))/(1−(b/a)) relative to wild-type
Method: “Feedback resistance” as used herein may be any increase in resistance to “feedback inhibition” (as defined above). Feedback resistance can be analyzed in different ways known to those skilled in the art. An appropriate example of such an analysis is shortly described herein: mevalonate kinase activity is measured in an activity assay at non-saturating concentrations of for instance ATP (or of another phosphate donor) and mevalonate (or mevalonate analogue), i.e., at for instance ATP (or phosphate donor) and mevalonate (or mevalonate analogue) concentrations around which the reaction rate is sensitive to changes of these substrate concentrations, e.g., at concentrations around the respective Km values of the enzyme under investigation for these substrates. The activities of both wild-type mevalonate kinase and of a variant/mutant of this enzyme are measured under otherwise identical conditions both in the absence and presence of a relevant concentration of a feedback inhibitor, i.e., at a concentration of feedback inhibitor affording significant inhibition of the wild-type mevalonate kinase. If the extent of inhibition (e.g., % inhibition) by the feedback inhibitor is lower for the mutant than for the wild-type enzyme, then the mutant is feedback resistant in the context of the present patent application. Once a feedback resistant variant/mutant has been identified, the same procedure as described above may be applied to identify further improved mutants, i.e., mutants that are even more feedback resistant. Feedback resistance (%) is calculated as follows: if (a) and (b) are the measured mevalonate kinase activities of the wild-type enzyme in the absence and presence, respectively, of the feedback inhibitor (e.g., FPP), and if (c) and (d) are the measured mevalonate kinase activities of the mutant enzyme in the absence and presence, respectively, of the same feedback inhibitor, then % feedback resistance is: % resistance=100·((d/c)−(b/a))/(1−(b/a))
as §1, §2, §3
Feedback resistance (%) was calculated according to the following formula: % resistance=100·((d/c)−(b/a))/(1−(b/a)) wherein (a) and (b) refer to the measured mevalonate kinase activities of the wild-type enzyme in the absence and presence, respectively, and (c) and (d) refer to the measured mevalonate kinase activities of the mutant enzyme in the absence and presence, respectively, of FPP. The results are shown in Tab. 1, wherein WT represents the non-mutated mevalonate kinase containing a His6-tag (SEQ ID NO:3).

B1: N66K, I152M: Saccharomyces cerevisiae mevalonate kinase mutant with substitutions N66K and I152M (encoding DNA SEQ ID NO:5) (protein, listed as Saccharomyces cerevisiae)
chain: MSLPFLTSAPGKVIIFGEHSAVYNKPAVAASVSALRTYLLISESSAPDTIELDFPDISFNHKWSIKDFNAITEDQVNSQKLAKAQQATDGLSQELVSLLDPLLAQLSESFHYHAAFCFLYMFVCLCPHAKNIKFSLKSTLPIGAGLGSSASMSVSLALAMAYLGGLIGSNDLEKLSENDKHIVNQWAFIGEKCIHGTPSGIDNAVATYGNALLFEKDSHNGTINTNNFKFLDDFPAIPMILTYTRIPRSTKDLVARVRVLVTEKFPEVMKPILDAMGECALQGLEIMTKLSKCKGTDDEAVETNNELYEQLLELIRINHGLLVSIGVSHPGLELIKNLSDDLRIGSTKLTGAGGGGCSLTLLRRDITQEQIDSFKKKLQDDFSYETFETDLGGTGCCLLSAKNLNKDLKIKSLVFQLFENKTTTKQQIDDLLLPGNTNLPWTS
final concentration of coenzyme Q10 produced, higher than strain carrying wild-type S. cerevisiae mvk [1]: at least 5% | Specific activity (% of wild-type) [2]: 148 % of wild-type | Feedback resistance (%) [3]: 67%
